This data set addresses eIF4A1 DQAD (human, UniProt P60842 1-406, E183Q). As to the kind of experiment: EMSA; silvestrol; affinity similar to wt; 20 mM HEPES/KOH pH 7.5, 100 mM KCl, 1 mM TCEP, 1% DMSO, 2 mM AMPPNP/MgCl2, 25 C, 60 min; EMSA gels 6-7% acrylamide-TB, 0.5x TB. The settings on record: protein: recombinant; tags: N-terminal 6xHis-SUMO, cleaved; label: FAM or 5' Dy780.

eIF4A1 DQAD, sequence (P60842 whole entry E183Q): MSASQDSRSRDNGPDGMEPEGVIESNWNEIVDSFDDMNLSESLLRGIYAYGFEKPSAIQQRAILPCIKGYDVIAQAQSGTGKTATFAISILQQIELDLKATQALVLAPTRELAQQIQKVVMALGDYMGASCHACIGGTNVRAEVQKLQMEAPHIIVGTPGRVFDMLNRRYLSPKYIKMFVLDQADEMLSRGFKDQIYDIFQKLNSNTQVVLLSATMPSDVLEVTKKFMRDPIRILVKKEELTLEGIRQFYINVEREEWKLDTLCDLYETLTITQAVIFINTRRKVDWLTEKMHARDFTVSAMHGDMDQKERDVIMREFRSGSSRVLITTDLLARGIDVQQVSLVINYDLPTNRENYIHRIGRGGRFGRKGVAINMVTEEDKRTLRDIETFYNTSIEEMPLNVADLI

Regarding AGAGAGAGAGAGAGAGAGAG (ssRNA) [AG-RNA (20 nt)], the binding result is reported as “binds”.
